Assay results reported in the supplement of paper PMC7125110.
± gives the standard error. Variants at the floor of the assay were thinned out.

B1: glmS ribozyme (parent)
chain: AUAAAAGCGCCAGAACUACAGAAAUGUAGUUGACGAGGAGGAGGUUUAUCGAAUUUUCGGCGGAUGCCUCCAAA

Columns and labels:
Conditions in all cases: with glucosamine-6-phosphate
glucosamine-6-phosphate [1] = variants of: B1; experiment: self-cleavage kobs at 160 uM GlcN6P; higher = faster cleavage; RNA array
Method in brief: (§1)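 Barcoded ribozyme variants were transcribed in situ on sequenced MiSeq chips by E. coli RNA polymerase. At 37 °C, a hybridised Cy3 probe tracked them while glucosamine-6-phosphate (40 μM to 10 mM) in HEPES/KCl/Mg(OAc)2 buffer flowed in and tiles were imaged over ~14 h. Per-tile medians of signals normalised to baseline and to non-cleaving reference variants were fit to one- or two-exponential decays, giving kobs. kcat and KM came from weighted Michaelis–Menten fits across concentrations.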

glucosamine-6-phosphate [2] = variants of: B1; experiment: self-cleavage kobs at 640 uM GlcN6P; higher = faster cleavage; RNA array
Method in brief: as §1

glucosamine-6-phosphate [3] = variants of: B1; experiment: self-cleavage kobs at 2500 uM GlcN6P; higher = faster cleavage; RNA array
Method in brief: as §1

glucosamine-6-phosphate [4] = variants of: B1; experiment: self-cleavage kobs at 10000 uM GlcN6P; higher = faster cleavage; RNA array
Method in brief: as §1

glucosamine-6-phosphate [5] = variants of: B1; experiment: self-cleavage kobs at 40 uM GlcN6P; higher = faster cleavage; RNA array
Method in brief: as §1

Row | Variant | self-cleavage kobs at 160 uM GlcN6P (glucosamine-6-phosphate [1]) [s⁻¹] | self-cleavage kobs at 640 uM GlcN6P (glucosamine-6-phosphate [2]) [s⁻¹] | self-cleavage kobs at 2500 uM GlcN6P (glucosamine-6-phosphate [3]) [s⁻¹] | self-cleavage kobs at 10000 uM GlcN6P (glucosamine-6-phosphate [4]) [s⁻¹] | self-cleavage kobs at 40 uM GlcN6P (glucosamine-6-phosphate [5]) [s⁻¹]
1 | A6U A12C A36C G38C C71U | < 1e-05 | < 1e-05 | < 1e-05 |  | 
2 | A6G A14C A42G U49G | < 1e-05 |  |  |  | 
3 | G7A U31C G60U | < 1e-05 |  | < 1e-05 |  | 
4 | G7A A12C U57A | < 1e-05 | < 1e-05 | < 1e-05 |  | 
5 | G7U U45A | < 1e-05 |  | < 1e-05 |  | 
6 | A6U C10G A52G U56G | < 1e-05 |  | < 1e-05 |  | 
7 | A6U A42C | < 1e-05 |  | < 1e-05 | < 1e-05 | 
8 | C8U G40U | < 1e-05 |  | < 1e-05 | < 1e-05 | 
9 | G62U U65G | < 1e-05 | < 1e-05 | < 1e-05 | < 1e-05 | < 1e-05
10 | A6U G35C | < 1e-05 | < 1e-05 |  | < 1e-05 | 
11 | C61G A64U C68A |  |  |  |  | < 1e-05
12 | G7U A33C C67A C68U | < 1e-05 |  | < 1e-05 |  | 
13 | G7U A36C A48C A53U | < 1e-05 |  | < 1e-05 |  | 
14 | G9U A12G G29A U56A | < 1e-05 | < 1e-05 | < 1e-05 |  | 
15 | C61U G62C |  | < 1e-05 | < 1e-05 | < 1e-05 | < 1e-05
16 | A6G G9U G32C G40U U45A U47G U69C | < 1e-05 |  |  |  | 
17 | G7U A15G G32A | < 1e-05 | < 1e-05 |  |  | 
18 | A64G C68U | < 1e-05 |  | 2.62e-05 ± 9e-06 | 3.13e-05 ± 9.2e-06 | < 1e-05
19 | A6U C10A U30G A36G A42C U49C U65A | < 1e-05 | < 1e-05 | < 1e-05 |  | 
20 | U65A U69C |  | 0.00019 ± 8.3e-05 | 0.00117 ± 0.00044 | 0.000843 ± 0.00023 | 5.26e-05 ± 1.5e-05
21 | C8A A42U U45G | < 1e-05 | < 1e-05 | < 1e-05 |  | 
22 | A6G A52G G63U | < 1e-05 | < 1e-05 | < 1e-05 |  | 
23 | G62C | < 1e-05 | < 1e-05 | < 1e-05 | < 1e-05 | < 1e-05
24 | A6C C10A G35A C58G C70G | 4.89e-05 ± 2.3e-05 | 0.000553 ± 0.00014 | 0.000134 ± 4.9e-05 |  | 
25 | A6U U45C | < 1e-05 | < 1e-05 |  |  | 

Row | Variant | self-cleavage kobs at 160 uM GlcN6P (glucosamine-6-phosphate [1]) [s⁻¹] | self-cleavage kobs at 640 uM GlcN6P (glucosamine-6-phosphate [2]) [s⁻¹] | self-cleavage kobs at 2500 uM GlcN6P (glucosamine-6-phosphate [3]) [s⁻¹] | self-cleavage kobs at 10000 uM GlcN6P (glucosamine-6-phosphate [4]) [s⁻¹] | self-cleavage kobs at 40 uM GlcN6P (glucosamine-6-phosphate [5]) [s⁻¹]
26 | U69C C71A | 0.000113 ± 1.9e-05 | 0.000587 ± 8.4e-05 | 0.000478 ± 9.3e-05 |  | 5.28e-05 ± 2.1e-05
27 | A6G G13U G29C C50G | 0.000248 ± 5.8e-05 | 0.00012 ± 4.1e-05 | 0.000163 ± 4.4e-05 |  | 
28 | A6C G7A | < 1e-05 | < 1e-05 |  |  | 
29 | G63U A64G | < 1e-05 | < 1e-05 |  | < 1e-05 | < 1e-05
30 | A6U U31A G43U | < 1e-05 | < 1e-05 | < 1e-05 |  | 
31 | G63A A64U |  | < 1e-05 | < 1e-05 | < 1e-05 | < 1e-05
32 | G7C G32C G43U G60U | < 1e-05 |  | < 1e-05 | < 1e-05 | 
33 | A6G G35C G59A | < 1e-05 | < 1e-05 |  |  | 
34 | C8A A15U A36C A52G | < 1e-05 |  |  |  | 
35 | A6C G7C A15U | < 1e-05 | < 1e-05 | < 1e-05 |  | 
36 | C8G G13U G43A U46G C50U | < 1e-05 | < 1e-05 |  |  | 
37 | C8A C61U A64C C67U | < 1e-05 | < 1e-05 | < 1e-05 |  | 
38 | G63C U65C |  |  |  | < 1e-05 | < 1e-05
39 | A6U U31G G41U A64C | < 1e-05 | < 1e-05 | < 1e-05 |  | 
40 | C8A G9U G32A G51A | < 1e-05 |  |  |  | 
41 | G7C A36G A39C | < 1e-05 | < 1e-05 |  |  | 
42 | A6C U49A C50U | < 1e-05 | < 1e-05 |  |  | 
43 | G9C G32C A33C A39G C61A | < 1e-05 |  | < 1e-05 |  | 
44 | A6C G37C U65A | < 1e-05 | < 1e-05 | < 1e-05 |  | 
45 | G9C C34A | < 1e-05 | < 1e-05 | < 1e-05 |  | 
46 | A6C G9A U45A | < 1e-05 | < 1e-05 |  |  | 
47 | G7U G37C G40A | < 1e-05 | < 1e-05 |  |  | 
48 | G7U A14U U55C C70U | < 1e-05 |  |  |  | 
49 | C8U G32C G43C C70G | < 1e-05 |  |  |  | 
